To fix the notation:
B1: 371_G10 (antibody, V domains shown)
VH: EVQLLESGGGLVQPGGSLRLSCAASGFTFSSYSMNWVRQAPGKGLEWVSGINYNGGYKSYADSVKGRFTISRDNSKNTLYLQMNSLRAEDTAVYYCARSANWHDTALDYWGQGTLVTVSS
VL: DIQMTQSPSSLSASVGDRVTITCRASQSISSYVNWYQQKPGKAPKLLIYAATSRHSGVPSRFSGSGSGTDFTLTISSLQPEDFATYYCQQSDDSPLTFGGGTKVEIK
B2: 372_F06 (antibody, V domains shown)
VH: B1 VH with S31D, S33G, S49A
VL: B1 VL with S30L, R54L, H55A, D92Y, D93E, S94T
B3: 373_A02 (antibody, V domains shown)
VH: B1 VH with S30D, S33G, S59G
VL: B1 VL with S30L, L47V, A51T, R54L, H55A, D92Y, D93N, S94T
B4: 373_A08 (antibody, V domains shown)
VH: B1 VH with S30D, S33G, G50N, K58T, S59G
VL: B1 VL with S30V, R54L, H55A, D92Y, D93S, S94L
B5: 372_D02 (antibody, V domains shown)
VH: B1 VH with S33G, N35H, S49A, K58T, S59G
VL: B1 VL with S30L, S31T, V33L, L47V, H55A, D92Y, S94N
B6: 372_B04 (antibody, V domains shown)
VH: B1 VH with S30D, S33G, S49A, G50N, K58T
VL: B1 VL with S30L, L47V, R54L, H55A, D92Y
B7: 373_A10 (antibody, V domains shown)
VH: B1 VH with S33G, G55S, K58T
VL: B1 VL with S30L, V33L, L47V, H55A, D92Y, S94L
B8: 373_C08 (antibody, V domains shown)
VH: B1 VH with S49A, G50N, K58T
VL: B1 VL with S30I, V33L, T52S, R54L, H55Q, D92Y, D93N, S94N
B9: 373_B06 (antibody, V domains shown)
VH: B1 VH with S31D, S49A, K58T, S59G
VL: B1 VL with S30L, S31T, L47V, D92Y, D93E
B10: 373_C11 (antibody, V domains shown)
VH: B1 VH with G55S, K58T, S59G
VL: B1 VL with S30L, S31T, L47V, A51V, H55A, D92Y, D93E, S94T
B11: 373_C04 (antibody, V domains shown)
VH: B1 VH with S49A, G50N, G55S, K58T, S59G
VL: B1 VL with S30I, L47V, A51V, H55A, D92Y, D93N
B12: 372_A04 (antibody, V domains shown)
VH: B1 VH with S30D, G55S, K58T
VL: B1 VL with S30L, S31T, V33L, L47V, H55A, D92Y, D93E, S94T
B13: 373_B04 (antibody, V domains shown)
VH: B1 VH with S33G, S49A, G55S, S59G
VL: B1 VL with S30L, S31T, V33L, H55A, D92Y, D93E, S94T
B14: 372_C07 (antibody, V domains shown)
VH: B1 VH with S31D, G50N, G55S, K58T, A106H
VL: B1 VL with S30L, V33L, L47V, D93N, S94T
B15: 373_C06 (antibody, V domains shown)
VH: B1 VH with S49A, K58T, S59G
VL: B1 VL with S30V, L47V, H55A, D92Y, S94T
B16: 371_H09 (antibody, V domains shown)
VH: B1 VH with S30D, G50N, K58T
VL: B1 VL with S30L, S31T, L47V, R54L, H55A, D92Y
B17: 373_B12 (antibody, V domains shown)
VH: B1 VH with S30D, S33G, G50S, G55S, K58T
VL: B1 VL with S30V, H55A, D92Y
B18: 372_F03 (antibody, V domains shown)
VH: B1 VH with S33G, S49A, K58T
VL: B1 VL with S30L, V33L, L47V, H55A, D92Y, S94T
B19: 373_D01 (antibody, V domains shown)
VH: B1 VH with S30D, G55S, A106H
VL: B1 VL with S30L, L47V, H55A, D92Y
B20: 373_B10 (antibody, V domains shown)
VH: B1 VH with S30D, S33G, G50N, K58T
VL: B1 VL with S30L, V33L, H55A, D92Y, S94L
B21: 373_C02 (antibody, V domains shown)
VH: B1 VH with S30D, S31D, G55S, S59G
VL: B1 VL with S30L, H55A, D92Y, D93N, S94T
B22: 372_F08 (antibody, V domains shown)
VH: B1 VH with S31D, G50N, G55S, K58T, S59G
VL: B1 VL with S30L, S31T, L47V, H55A, D92Y, S94T
B23: 372_F09 (antibody, V domains shown)
VH: B1 VH with S30D, S49A, G50N, G55S, S59G
VL: B1 VL with S30L, S31T, V33L, L47V, R54L, H55A, D92Y, D93S

Substitutions are numbered along the chain they refer to.
Also: test concentration or dose not given here.

Sequence of Mouse ACVR2A (P27038 20-135 limits assumed): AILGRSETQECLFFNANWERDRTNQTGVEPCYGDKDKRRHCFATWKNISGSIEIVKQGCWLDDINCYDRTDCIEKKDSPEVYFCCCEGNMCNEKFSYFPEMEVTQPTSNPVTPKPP

The first assay has as its target Mouse ACVR2A (mouse, UniProt P27038 20-135, limits assumed). The experiment in a line: ELISA. A digest of the protocol:
(§1)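 mAb binding by ELISA; antigens: hu ACVR2A, mu ACVR2A; pos ctrl biotinylated goat anti-hu kappa LC; neg ctrl hu Fc.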
Molecule B1 gave an optical density of 1.92 OD.

B2: the optical density is 2.54 OD.

Take B3: the optical density is 2.97 OD.

In turn, B4 displayed an optical density of 3.31 OD.

For the molecule B5, the optical density came out at 2.91 OD.

As for B6, the optical density was 3.12 OD.

Take B7: the optical density came out at 3.55 OD.

For the molecule B8, the optical density stood at 3.19 OD.

In turn, B9 had an optical density of 3.43 OD.

Molecule B10 had an optical density of 3.47 OD.

B11 gave an optical density of 3.5 OD.

For B12, the optical density was found to be 3.4 OD.

For the molecule B13, the optical density worked out at 3.62 OD.

The molecule B14 gave an optical density of 2.64 OD.

Consider B15, for which the optical density is 3.53 OD.

B16 returned an optical density of 3.23 OD.

As for B17, the optical density stood at 3.08 OD.

For B18, the optical density amounted to 3.31 OD.

In turn, B19 registered an optical density of 3.57 OD.

For B20, the optical density was found to be 3.6 OD.

In turn, B21 had an optical density of 3.47 OD.

Consider B22, for which the optical density came to 3.22 OD.

Molecule B23 registered an optical density of 3.04 OD.

The next assay deals with T1, Human ACVR2A (human, UniProt P27037 20-135, limits assumed).
T1 construct: also called activin receptor, type II A
T1 sequence (P27037 20-135 limits assumed): as the sequence (P27038 20-135 limits assumed) above, with R20K, I73V counted along it
The experiment in a line: ELISA. A digest of the protocol:
as §1
On the technique in general: An ELISA detects its analyte on a solid surface through an enzyme-linked reagent.
Consider B1, for which the optical density amounted to 1.65 OD.

Turning to B2, the optical density worked out at 2.26 OD.

In the case of B3, the optical density is 2.8 OD.

For the molecule B4, the optical density stood at 3.3 OD.

The molecule B5 gave an optical density of 2.66 OD.

Molecule B6 yielded an optical density of 2.61 OD.

B7: the optical density was found to be 3.54 OD.

The molecule B8 came in with an optical density of 3.05 OD.

Regarding B9, the optical density was 3.44 OD.

B10 had an optical density of 3.49 OD.

In turn, B11 came in with an optical density of 3.36 OD.

For B12, the optical density is 3.2 OD.

B13 yielded an optical density of 3.6 OD.

Regarding B14, the optical density was 2.41 OD.

As for B15, the optical density stood at 3.54 OD.

Molecule B16 returned an optical density of 2.96 OD.

On to B17, for which the optical density amounted to 3.12 OD.

On to B18, for which the optical density was 3.19 OD.

Consider B19, for which the optical density turned out to be 3.23 OD.

B20 yielded an optical density of 3.65 OD.

B21 displayed an optical density of 3.45 OD.

Regarding B22, the optical density was 3.38 OD.

B23 yielded an optical density of 3.17 OD.

Another assay concerns the target T2, Goat anti-Human Kappa.
T2 construct: Positive control of the ELISA; also called biotinylated goat anti-human kappa light chain
Briefly: ELISA, positive control. A digest of the protocol:
as §1
On to B1, for which the optical density stood at 3.41 OD.

In the case of B2, the optical density turned out to be 3.48 OD.

As for B3, the optical density is 2.96 OD.

B4: the optical density was 3.11 OD.

B5 registered an optical density of 3.58 OD.

On to B6, for which the optical density was 3.59 OD.

On to B7, for which the optical density turned out to be 3.1 OD.

B8 had an optical density of 3.19 OD.

In turn, B9 returned an optical density of 3.24 OD.

B10 registered an optical density of 3.17 OD.

With B11, the optical density was found to be 3.2 OD.

For B12, the optical density is 3.64 OD.

As to B13, the optical density worked out at 3.25 OD.

Take B14: the optical density stood at 3.46 OD.

In the case of B15, the optical density was determined as 3.16 OD.

Take B16: the optical density stood at 3.66 OD.

B17 came in with an optical density of 3.27 OD.

Consider B18, for which the optical density was 3.6 OD.

For the molecule B19, the optical density was 3.04 OD.

For B20, the optical density amounted to 3.15 OD.

Take B21: the optical density was determined as 3.15 OD.

In turn, B22 showed an optical density of 3.44 OD.

For B23, the optical density was 3.47 OD.
